T1: LY6/PLAUR Domain Containing 3, LYPD3 (31-325) with C-terminal 6x-His tag (UniProt O95274 31-325)
T1 construct: LY6/PLAUR Domain Containing 3 (LYPD3, C4.4A), residues 31-325; also called C4.4A; source: expi293F, transfected, secreted, purified from media (HisTrap Excel); not shown: His6, C-terminal, kept
T1 sequence (looked up): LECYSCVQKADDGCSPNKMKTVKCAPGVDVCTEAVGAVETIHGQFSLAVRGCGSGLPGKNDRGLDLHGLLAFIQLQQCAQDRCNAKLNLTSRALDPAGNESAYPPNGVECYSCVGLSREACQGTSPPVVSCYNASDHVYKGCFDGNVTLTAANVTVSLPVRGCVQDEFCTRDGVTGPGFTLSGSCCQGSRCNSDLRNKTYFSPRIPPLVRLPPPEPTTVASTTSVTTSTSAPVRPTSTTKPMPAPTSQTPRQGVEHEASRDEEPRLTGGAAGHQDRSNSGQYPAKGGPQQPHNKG


Key:
[1] = target: T1, LY6/PLAUR Domain Containing 3, LYPD3 …; experiment: ELISA; MaxiSorp plates coated with 1 µg AGR2 (or BSA); varying LYPD3 in 50 mM Tris, 140 mM NaCl, 1% BSA, 0.05% Tween 20, pH 8.0, 1 h at 37 °C; detection with anti-6x-His-peroxidase; conditions: both partners purified
[2] = target: T2, Anterior Gradient-2 (AGR2/PDIA17), AGR2 (21-175), 6x-His tag removed (human, UniProt O95994)
[3] = target: T2, Anterior Gradient-2 (AGR2/PDIA17), AGR2 …; experiment: ELISA; MaxiSorp plates coated with 1 µg AGR2 (wild type or mutant), PDI, TXN or BSA; varying MAb in 50 mM Tris, 140 mM NaCl, 1% BSA, 0.05% Tween 20, pH 8.0, 1 h at 37 °C; detection with Protein L-peroxidase; conditions: both partners purified

Binder	EC50 [3]	also measured
Anterior Gradient-2 (AGR2/PDIA17), AGR2 (21-175), 6x-His tag removed (natural protein, human, UniProt O95994 21-175, looked up, Anterior Gradient-2 (AGR2/PDIA17), human, residues 21-175; tag removed with 8x-His-TEV; also called rAGR2; recombinant AGR2; source: E. coli BL21(DE3), purified (HisTrap, TEV cleavage, second HisTrap flow-through); not shown: His6, N-terminal, cleaved) RDTTVKPGAKKDTKDSRPKLPQTLSRGWGDQLIWTQTYEEALYKSKTSNKPLMIIHHLDECPHSQALKKVFAENKEIQKLAEQFVLLNLVYETTDKHLSPDGQYVPRIMFVDPSLTVRADITGRYSNRLYAYEPADTALLLDNMKKALKLLKTEL		binding result [1]: binds
S31R/A53Y/T59P (antibody, V domains shown) VH: EVQLLESGGGLVQPGGSLRLSCAASGFTFSRYAMSWVRQAPGKGLEWVSGISYQGAHTPYADSVKGRFTISRDNSKNTLYLQMNSLRAEDTAVYYCAKTYKGFDYWGQGTLVTVSS VL: DIQMTQSPSSLSASVGDRVTITCRASQSISSYLNWYQQKPGKAPKLLIYSASRLQSGVPSRFSGSGSGTDFTLTISSLQPEDFATYYCQQGRRMPPTFGQGTKVEIK		binding result [2]: binds
anti-AGR2 monoclonal antibody MAb-15 (VH-VL of scFv-15 in a full human IgG1 backbone) (antibody, V domains shown, VH of scFv-15 (as the VH of m3); human IgG1 heavy chain constant region (full human IgG1 backbone); VL of scFv-15 (as the VL of m3); light chain constant region; IgG1; also called original anti-AGR2 antibody; parent MAb-15; source: expi293F, transfected, purified from media (rProteinA)) VH: EVQLLESGGGLVQPGGSLRLSCAASGFTFSSYAMSWVRQAPGKGLEWVSGISAQGAHTTYADSVKGRFTISRDNSKNTLYLQMNSLRAEDTAVYYCAKTYKGFDYWGQGTLVTVSS VL: DIQMTQSPSSLSASVGDRVTITCRASQSISSYLNWYQQKPGKAPKLLIYSASRLQSGVPSRFSGSGSGTDFTLTISSLQPEDFATYYCQQGRRMPPTFGQGTKVEIK	2.03 nM	
affinity-matured anti-AGR2 MAb S31R/A53Y (VH mutant of MAb-15, human IgG1) (antibody, V domains shown, as the VH of m4 (scFv-15) with the stated changes; human IgG1 heavy chain constant region; IgG1; also called anti-AGR2 MAb clone S31R/A53Y; source: expi293F, transfected, purified from media (rProteinA)) VH: EVQLLESGGGLVQPGGSLRLSCAASGFTFSRYAMSWVRQAPGKGLEWVSGISYQGAHTTYADSVKGRFTISRDNSKNTLYLQMNSLRAEDTAVYYCAKTYKGFDYWGQGTLVTVSS VL: DIQMTQSPSSLSASVGDRVTITCRASQSISSYLNWYQQKPGKAPKLLIYSASRLQSGVPSRFSGSGSGTDFTLTISSLQPEDFATYYCQQGRRMPPTFGQGTKVEIK	0.0404 nM	
S31R/A53F/T59P (antibody, V domains shown) VH: EVQLLESGGGLVQPGGSLRLSCAASGFTFSRYAMSWVRQAPGKGLEWVSGISFQGAHTPYADSVKGRFTISRDNSKNTLYLQMNSLRAEDTAVYYCAKTYKGFDYWGQGTLVTVSS VL: DIQMTQSPSSLSASVGDRVTITCRASQSISSYLNWYQQKPGKAPKLLIYSASRLQSGVPSRFSGSGSGTDFTLTISSLQPEDFATYYCQQGRRMPPTFGQGTKVEIK		binding result [2]: binds
affinity-matured anti-AGR2 MAb S31R (VH mutant of MAb-15, human IgG1) (antibody, V domains shown, as the VH of m4 (scFv-15) with the stated change; human IgG1 heavy chain constant region; IgG1; source: expi293F, transfected, purified from media (rProteinA)) VH: EVQLLESGGGLVQPGGSLRLSCAASGFTFSRYAMSWVRQAPGKGLEWVSGISAQGAHTTYADSVKGRFTISRDNSKNTLYLQMNSLRAEDTAVYYCAKTYKGFDYWGQGTLVTVSS VL: DIQMTQSPSSLSASVGDRVTITCRASQSISSYLNWYQQKPGKAPKLLIYSASRLQSGVPSRFSGSGSGTDFTLTISSLQPEDFATYYCQQGRRMPPTFGQGTKVEIK	0.156 nM	
affinity-matured anti-AGR2 MAb S31R/A53F (VH mutant of MAb-15, human IgG1) (antibody, V domains shown, as the VH of m4 (scFv-15) with the stated changes; human IgG1 heavy chain constant region; IgG1; source: expi293F, transfected, purified from media (rProteinA)) VH: EVQLLESGGGLVQPGGSLRLSCAASGFTFSRYAMSWVRQAPGKGLEWVSGISFQGAHTTYADSVKGRFTISRDNSKNTLYLQMNSLRAEDTAVYYCAKTYKGFDYWGQGTLVTVSS VL: DIQMTQSPSSLSASVGDRVTITCRASQSISSYLNWYQQKPGKAPKLLIYSASRLQSGVPSRFSGSGSGTDFTLTISSLQPEDFATYYCQQGRRMPPTFGQGTKVEIK	0.0385 nM	

Source: article PMC11672854, “A High-Affinity Monoclonal Antibody Against the Pancreatic Ductal Adenocarcinoma Target, Anterior Gradient-2 (AGR2/PDIA17)” (Antibodies, 2024)
